Measurements taken from patent US8822420B2, “Peptides and aptamers thereof as specific modulators of mutant p53 function” (Universita Degli Studi di Trieste, priority 2008, dated 2014).
No end group written: not given here. Ahx = NCCCCCC(=O)O

Legend:
[1] = target: T1, p53 R175H (Homo sapiens, UniProt P04637, R175H); test: Co-immunoprecipitation of EGFP-TNV-PAs with p53 R175H in H1299 cells; assay type: binding; conditions: H1299 cells co-transfected with p53 R175H and EGFP-TNV-PAs, IP anti-GFP
T1 construct: expression of full-length point mutants (hereinafter identified also as mut-p53 or mutant p53); expressed in transfected cells; host or cells: H1299 (p53-null)

[2] = target: T1, p53 R175H; test: EGR1-Luc luciferase assay in H1299 cells, p53 R175H; assay type: cell-based; conditions: peptide 1.6, 4, 20 μM
Description: (§1) (a) The effect of PAs on mutant p53 transactivating activity was analyzed in MG63 cells transiently transfected with Myc-Luc reporter along with constructs expressing p53 D281G or empty vector and with p[…] vectors expressing PAs or control vectors pLPC-EGFP (EGFP) or p[…] (TNV). The promoter activity measured in each experiment was normalized to the value measured in the absence of mutant p53. RLU: Relative Luciferase Units. […] Expression of mutant p53 and PAs was analyzed by Western Blot with the indicated antibodies. (b) The effect of FsA79 peptide on the transactivation of EGR1 promoter by mutant p53 was analyzed in H1299 cells, transfected with EGR1-Luc reporter along with plasmids encoding either p53R175H (left) or p53R273H (right) and treated with increasing amounts of FsA79 peptide (1.6, 4, 20 μM). […] (c) The effect of PAs on p53 wt transcriptional activity was analyzed in H1299 cells transfected with p21-Luc reporter, wt p53-expressing vector or empty vector along with constructs expressing the EGFP-TNV-PAs or control vectors as in (a). […] (d) The effect of PAs on the transcriptional activity of TAp73α was analyzed as in (c). […] (e) The effect of PAs on p53 wt transcriptional activity was analyzed in H1299 cells transfected with Bax-Luc reporter, wt-p53 expressing vector or empty vector together with constructs expressing EGFP-TNV-PAs or control vectors as in FIG. 3(c). […]

[3] = target: T2, p53 R273H (Homo sapiens, UniProt P04637, R273H); test: EGR1-Luc luciferase assay in H1299 cells, p53 R273H; assay type: cell-based; conditions: peptide 1.6, 4, 20 μM
T2 construct: expression of full-length point mutants (hereinafter identified also as mut-p53 or mutant p53); expressed in transfected cells; host or cells: H1299 (p53-null)
Description: as §1

[4] = target: T3, TAp73α (Homo sapiens, UniProt O15350); test: Bax-Luc luciferase assay in H1299 cells, TAp73α; assay type: cell-based
T3 construct: expressed in transfected cells; host or cells: H1299
T3 sequence (O15350 1-636): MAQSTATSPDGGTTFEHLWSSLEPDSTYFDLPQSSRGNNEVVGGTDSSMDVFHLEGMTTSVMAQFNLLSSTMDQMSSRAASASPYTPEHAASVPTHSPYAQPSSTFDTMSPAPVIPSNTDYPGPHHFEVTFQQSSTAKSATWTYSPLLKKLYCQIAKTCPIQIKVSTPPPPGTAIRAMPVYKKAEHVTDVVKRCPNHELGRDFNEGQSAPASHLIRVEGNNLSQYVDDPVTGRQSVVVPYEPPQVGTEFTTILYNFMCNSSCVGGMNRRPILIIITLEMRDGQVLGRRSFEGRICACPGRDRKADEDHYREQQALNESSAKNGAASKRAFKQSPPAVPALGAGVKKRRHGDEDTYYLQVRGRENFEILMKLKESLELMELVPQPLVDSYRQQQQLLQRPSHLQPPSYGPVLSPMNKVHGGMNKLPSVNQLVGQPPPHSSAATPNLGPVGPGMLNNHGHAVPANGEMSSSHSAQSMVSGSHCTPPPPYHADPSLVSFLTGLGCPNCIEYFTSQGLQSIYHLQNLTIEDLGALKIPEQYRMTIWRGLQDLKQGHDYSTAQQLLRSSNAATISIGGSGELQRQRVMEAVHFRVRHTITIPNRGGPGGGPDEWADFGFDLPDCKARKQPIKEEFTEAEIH
Description: (§2) (a) The effect of PAs on mutant p53 transactivating activity was analyzed in MG63 cells transiently transfected with Myc-Luc reporter along with constructs expressing p53 D281G or empty vector and with pLPC-EGFP-TNV vectors expressing PAs or control vectors pLPC-EGFP (EGFP) or pLPC-EGFP-TNV (TNV). The promoter activity measured in each experiment was normalized to the value measured in the absence of mutant p53. RLU: Relative Luciferase Units. […] Expression of mutant p53 and PAs was analyzed by Western Blot with the indicated antibodies. (b) The effect of FsA79 peptide on the transactivation of EGR1 promoter by mutant p53 was analyzed in H1299 cells, transfected with EGR1-Luc reporter along with plasmids encoding either p53R175H (left) or p53R273H (right) and treated with increasing amounts of FsA79 peptide (1.6, 4, 20 μM). Luciferase assays were performed and represented as in (a). (c) The effect of PAs on p53 wt transcriptional activity was analyzed in H1299 cells transfected with p21-Luc reporter, wt p53-expressing vector or empty vector along with constructs expressing the EGFP-TNV-PAs or control vectors as in (a). Luciferase assays were performed and represented as in (a). (d) The effect of PAs on the transcriptional activity of TAp73α was analyzed as in (c). […] (f) Effect of PAs on TAp73a transcriptional activity on Bax-Luc reporter was analyzed as described in FIG. 3(d). […]

[5] = target: T4, wild-type p53 (Homo sapiens, UniProt P04637); test: Bax-Luc luciferase assay in H1299 cells, wild-type p53; assay type: cell-based
T4 construct: expressed in transfected cells; host or cells: H1299
Description: as §2

[6] = test system: MDA-MB-468 cells; test: AnnexinV-PE-Cyan5 staining by flow cytometry, MDA-MB-468 cells; assay type: cell-based; conditions: MDA-MB-468, GFP positive cells, 36 hours after transfection
Description: (§3) (a) The apoptotic effect of PAs was analyzed in U20S (expressing p53 wt), H1299 (p53 null), Sk-Br-3 (expressing p53R175H) and MDA-MB-468 (expressing p53R273H) cells. Cells were transfected either with constructs expressing EGFP-TNV-PAs or with pLPCcontrol vector, harvested after 36 hours and stained with propidium iodide before analyzing the DNA content of EGFP-positive cells by flow cytometry. Histograms represent the average and the s.d. of the percentage of cells with sub-G1 DNA content measured in three independent experiments. […] At least 10000 EGFP-positive cells were analyzed in each acquisition. Histograms represent the average and s.d. of three independent experiments. […] Expression of the overexpressed EGFP-TNV-PAs as well as endogenous cleaved PARP (p85), p53R175H and the proapoptotic protein Bax was analyzed by Western Blot with the indicated antibodies. (d) Analysis of AnnexinV-PE-Cyan5 binding of MDA-MB-468 cells treated and analyzed as described in FIG. 4(c). […] Aliquots of cell lysates untreated (NT) or treated with 50 μM Etoposide (Eto) were analyzed by Western Blot. […] After additional 20 hours cells were harvested and analyzed as in FIG. 4(a).
(§4) Sk-Br-3, MDA-MB-468, H1299 or U20S cells were seeded in 6 wells and transfected with pLPCEGFP-TNV16mers or pLPCEGFP-TNV or pLPC. […] Cells were analyzed by cytofluorimeter (FACScalibur) after additional 20 minutes.

[7] = test system: Sk-Br-3 cells; test: FACS analysis of DNA content (propidium iodide) of EGFP-positive Sk-Br-3 cells; assay type: cell-based
Description: (a) The apoptotic effect of PAs was analyzed in U20S (expressing p53 wt), H1299 (p53 null), Sk-Br-3 (expressing p53R175H) and MDA-MB-468 (expressing p53R273H) cells. Cells were transfected either with constructs expressing EGFP-TNV-PAs or with pLPCcontrol vector, harvested after 36 hours and stained with propidium iodide before analyzing the DNA content of EGFP-positive cells by flow cytometry. Histograms represent the average and the s.d. of the percentage of cells with sub-G1 DNA content measured in three independent experiments. […] At least 10000 EGFP-positive cells were analyzed in each acquisition. Histograms represent the average and s.d. of three independent experiments. […] Expression of the overexpressed EGFP-TNV-PAs as well as endogenous cleaved PARP (p85), p53R175H and the proapoptotic protein Bax was analyzed by Western Blot with the indicated antibodies. (d) Analysis of AnnexinV-PE-Cyan5 binding of MDA-MB-468 cells treated and analyzed as described in FIG. 4(c). […] FACS analysis of DNA content was then performed as in (a). Aliquots of cell lysates untreated (NT) or treated with 50 μM Etoposide (Eto) were analyzed by Western Blot. […] Cells were transfected with EGFP-PAs and then left untreated or treated with 100 μM PRIMA-1. After additional 20 hours cells were harvested and analyzed as in FIG. 4(a).
Sk-Br-3, MDA-MB-468, H1299 or U20S cells were seeded in 6 wells and transfected with pLPCEGFP-TNV16mers or pLPCEGFP-TNV or pLPC. For cell cycle analysis, cells were collected by trypsinization, recovering also the supernatants, and resuspended in PBS/0.1% Nonidet P-40 (NP-40) containing 2 μg/ml RnaseA. 10 min later, 10 μg/ml propidium iodide was added. Cells were analyzed by cytofluorimeter (FACScalibur) after additional 20 minutes.

[8] = test system: Sk-Br-3 cells; test: PARP cleavage (p85) by Western Blot in Sk-Br-3 cells; assay type: cell-based
Description: (a) The apoptotic effect of PAs was analyzed in U20S (expressing p53 wt), H1299 (p53 null), Sk-Br-3 (expressing p53R175H) and MDA-MB-468 (expressing p53R273H) cells. Cells were transfected either with constructs expressing EGFP-TNV-PAs or with pLPCcontrol vector, harvested after 36 hours and stained with propidium iodide before analyzing the DNA content of EGFP-positive cells by flow cytometry. Histograms represent the average and the s.d. of the percentage of cells with sub-G1 DNA content measured in three independent experiments. […] At least 10000 EGFP-positive cells were analyzed in each acquisition. Histograms represent the average and s.d. of three independent experiments. […] Expression of the overexpressed EGFP-TNV-PAs as well as endogenous cleaved PARP (p85), p53R175H and the proapoptotic protein Bax was analyzed by Western Blot with the indicated antibodies. […] FACS analysis of DNA content was then performed as in (a). Aliquots of cell lysates untreated (NT) or treated with 50 μM Etoposide (Eto) were analyzed by Western Blot. […] Cells were transfected with EGFP-PAs and then left untreated or treated with 100 μM PRIMA-1. After additional 20 hours cells were harvested and analyzed as in FIG. 4(a). […]
To specifically evaluate the effect on cells expressing the aptamers, propidium-iodide staining was measured only in the GFP positive population.

[9] = test system: Sk-Br-3 cells; test: AnnexinV-PE-Cyan5 staining by flow cytometry, Sk-Br-3 cells; assay type: cell-based; conditions: Sk-Br-3, GFP positive cells, 36 hours after transfection
Description: as §3, §4

[10] = target: T5, p53 D281G (Homo sapiens, UniProt P04637, D281G); test: c-Myc-Luc luciferase assay in MG63 cells; assay type: cell-based; conditions: EGFP-TNV-PAs, 36 hours
T5 construct: expression of full-length point mutants (hereinafter identified also as mut-p53 or mutant p53); expressed in transfected cells; host or cells: MG63 (p53-null)
Description: as §1

## AKYCQCAAKVRVTAAM [A3]
[1]
  binding to p53 R175H by co-immunoprecipitation: showed a stronger interaction with p53 R175H

## FAM-Ahx-peptide sA79 ({FAM-Ahx}-DVADWESCGEYWCYRV; cysteine pairing not given here) [FsA79, fluoresceinated version of sA79 peptide]
[2]
  effect on transactivation of EGR1-Luc reporter by p53 R175H: inhibits the transactivation activity of both mutants
[3]
  effect on transactivation of EGR1-Luc reporter by p53 R273H: inhibits the transactivation activity of both mutants

## IQITLTGWSARVTTSG [A60, 16mer peptide aptamer in thioredoxin scaffold; free peptide not synthetized]
[1]
  binding to p53 R175H by co-immunoprecipitation: showed a stronger interaction with p53 R175H
[4]
  effect on transactivation activity of p73 on Bax-Luc reporter: all aptamers, but A60, do not significantly affect
[5]
  effect on transactivation activity of wild-type p53 on Bax-Luc reporter: all aptamers, but A60, do not significantly affect

## VWAESCDDCGEYWRYV [A79]
[1]
  binding to p53 R175H by co-immunoprecipitation: showed a stronger interaction with p53 R175H

## GPVVPRTQYMSLAFGW [A29]
[1]
  binding to p53 R175H by co-immunoprecipitation: showed a stronger interaction with p53 R175H
[6]
  AnnexinV positive cells: approximately 30%
[7]; Sk-Br-3
  apoptotic response (sub-G1) compared with Etoposide treatment alone: comparable to that observed upon drug treatment alone
[7]; Sk-Br-3, PRIMA-1 100 μM for 20 hours
  sub-G1 peak compared with PRIMA-1: comparable to that induced by PRIMA-1
[8]
  cleaved p85 fragment of PARP-1: evident increase
[9]
  AnnexinV positive cells: approximately 30%

## QRGLYCSCVTNQNAEV [B6, reference compound]
[6]
  AnnexinV positive cells: less than 15%
[7]; Sk-Br-3 (p53 R175H), GFP positive population, 36 hours after transfection
  sub-G1 peak (apoptotic cell death): unable to induce apoptosis
[10]
  effect on transactivation activity of mutant p53 on c-Myc-Luc reporter: did not showed any effect
[9]
  AnnexinV positive cells: less than 15%
